Measurements published in patent US20240254220A1 (CENTRICSBIO, published 2024).

Tests used:
[1] = molecular target: T1, CD300c on the surface of cells (human, UniProt Q08708 21-224); assay: flow cytometry (FACS binding) on THP-1 cells overexpressing CD300c, FITC anti-human IgG (H+L), MFI
T1 construct: whole, on cells; also called cellular antigen
T1 sequence (looked up): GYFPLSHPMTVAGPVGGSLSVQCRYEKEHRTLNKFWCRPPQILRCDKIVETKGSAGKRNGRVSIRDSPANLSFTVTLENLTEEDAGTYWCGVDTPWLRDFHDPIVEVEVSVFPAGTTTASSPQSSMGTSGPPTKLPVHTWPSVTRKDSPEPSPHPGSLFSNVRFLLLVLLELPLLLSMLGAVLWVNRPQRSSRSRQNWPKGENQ
Experimental: (§1) In order to identify whether the anti-CD300c monoclonal antibody (CL7) recognizes a cellular antigen, FACS binding was performed.
(§2) Then, the cells were incubated with the anti-CD300c monoclonal antibody, which was serially diluted 3-fold starting from 10 μg/mL, in a CO₂ incubator for 30 minutes, and washed twice with FACS buffer. Then, the cells were incubated with FITC-conjugated anti-human IgG (H+L), which was diluted 1:100 in FACS buffer, in a CO₂ incubator for 30 minutes, and washed twice with FACS buffer. Subsequently, FITC signals were measured with a CytoFLEX instrument manufactured by Beckman Coulter, Inc., and then the MFI values were obtained using CytExpert program.

[2] = molecular target: T1, CD300c on the surface of cells; assay: flow cytometry (FACS binding) on 293T cells overexpressing CD300c, FITC anti-human IgG (H+L), MFI
Experimental: as §1, §2

mouse CD300c = molecular target: T2, mouse CD300c (mouse); assay: cell-based or functional assay
T2 sequence (A2A7V7 whole entry, looked up): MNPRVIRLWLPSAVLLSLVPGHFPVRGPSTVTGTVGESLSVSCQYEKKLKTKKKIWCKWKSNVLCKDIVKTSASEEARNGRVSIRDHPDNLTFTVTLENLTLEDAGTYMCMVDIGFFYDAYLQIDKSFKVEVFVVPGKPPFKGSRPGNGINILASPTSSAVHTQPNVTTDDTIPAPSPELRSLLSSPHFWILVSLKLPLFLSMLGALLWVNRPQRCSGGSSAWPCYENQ

[3] = molecular target: T3, CD300c antigen (11832-H08H, Sino Biological) (human, UniProt Q08708 21-183); assay: SPR, CD300c immobilised on the chip (399.2 RU), CL7 as analyte at 0-6.25 µg/mL; CD300c on the chip, CL7 as analyte
T3 construct: Bought antigen; also called CD300c protein; CD300 antigen-like family member C
T3 sequence (looked up): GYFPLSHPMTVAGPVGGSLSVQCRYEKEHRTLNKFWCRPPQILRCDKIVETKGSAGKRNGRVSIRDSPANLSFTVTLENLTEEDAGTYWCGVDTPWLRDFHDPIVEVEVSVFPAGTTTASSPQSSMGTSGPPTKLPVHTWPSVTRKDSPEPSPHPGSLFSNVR
Experimental: In order to identify the binding affinity between the antigen CD300c and the anti-CD300c monoclonal antibody CL7, a surface plasmon resonance experiment was performed.
To immobilize CD300c on a […], 5 μg/mL of CD300c was diluted in 10 mM acetate buffer (pH 5.5). Then, the flow rates were all set equally to […], and the target RU was respectively set to 300 RU. […] by a mixture of 0.2 M EDC and 0.05 M NHS, and blocked with 1 M ethanolamine to perform the immobilization so that the final RU of CD300c became 399.2 RU. Then, CL7 was diluted in PBSP to concentrations of 0, 0.195, 0.39, 0.78, 1.56, 3.125, and 6.25 μg/mL, separately. […] Subsequently, 50 mM NaOH was allowed to flow at a rate of 30 μL/min for 30 seconds to regenerate the surface.

[4] = molecular target: T3, CD300c antigen (11832-H08H, Sino …); assay: binding ELISA on coated CD300c antigen (800 ng/mL), anti-Fc secondary antibody, 450 nm (Experimental Example 2.3)
Experimental: CD300c antigen (250 ug/mL) was diluted to a concentration of 800 ng/mL in coating buffer (0.1 M sodium carbon ate, pH 9.0), placed into a 96-well microplate at 100 μL per well, and incubated at 4° C. overnight. The next day, the microplate was washed three times with 200 μL of PBST. Thereafter, 200 μL of a blocking buffer (5% skim milk) was added thereto, followed by blocking at room temperature for 1 hour. The anti-CD300c monoclonal antibody CL7 was diluted to 200 μg/mL in PBS, and the concentration thereof was checked by measurement using Nanodrop (product name: NanoDrop One/One, manufactured by Thermo Fisher Scientific). Subsequently, CL7 was diluted in quadruplicate with PBS starting from 10 μg/mL, and added at 100 μL each, followed by incubation at room temperature for 1 hour. After the incubation, the microplate was washed three times with […] of PBST. A secondary antibody (conjugated anti-Fc IgG) was diluted 1:10,000 in blocking buffer, and added at 100 μL, followed by incubation at room temperature for 1 hour, and then washed three times with 200 μL of PBST. Subsequently, TMB and hydrogen peroxide were mixed 1:1, and added at 100 μL per well, followed by incubation at room temperature for 7 to 9 minutes.

[5] = molecular target: T3, CD300c antigen (11832-H08H, Sino …); assay: binding ELISA, plate coated with CD300c antigen (8 µg/mL), HRP anti-Fc IgG detection
Experimental: In order to identify the antigen-binding ability of the anti-CD300c monoclonal antibodies produced in Example 1, binding ELISA was performed. Specifically, a CD300c antigen (11832-H08H, Sino Biological) or a CD300a antigen (12449-H08H, Sino Biological) in a coating buffer (0.1 M sodium carbonate, pH 9.0) was dispensed into an ELISA plate at a concentration of 8 μg/mL per well, followed by incubation at room temperature for 3 hours to allow the antigen to be bound to the plate. The unbound antigens were removed by washing three times using phosphate buffered saline-Tween 20 (PBST), and then 300 μL of PBST supplemented with 5% bovine serum albumin (BSA) was added to each well, followed by incubation at room temperature for 1 hour and then washing using PBST. Then, an anti-CD300c monoclonal antibody was diluted in quadruplicate and added thereto, followed by incubation for 1 hour at room temperature for antigen binding. After 1 hour, washing was performed three times using PBST to remove unbound anti-CD300c monoclonal antibody, and then 4 μg/mL of an antibody for detection (HRP conjugated anti-Fc IgG) was added, followed by incubation again at room temperature for 1 hour. Subsequently, the unbound antibody for detection was removed using PBST, and then TMB solution was added, followed by incubation for 10 minutes for development. Then, 2 N sulfuric acid solution was added to terminate the development reaction, and the absorbance was measured at 450 nm to identify the antibodies specifically binding to the CD300c antigen.

EC50 [1]: 2.6 nM
EC50 [2]: 2.7 nM
cancer cell proliferation inhibitory effect, CT26 mouse colon cancer cells, 10 ug/mL antibody, 5 days, CCK-8 (mouse CD300c): 66%
Kd [3]: 0.52 nM
EC50 (read off the curve) [4]: ~0.06 µg/mL
EC50 [5]: 0.047 µg/mL
B1: CL7 (antibody, V domains shown)
VH: EVQLLESGGGLVQPGGSLRLSCAASGFTFSRYAMSWVRQAPGKGLEWVSAISGSGGSTYYADSVKGRFTISRDNSKNTLYLQMNSLRAEDTAVYYCARSSQGIFDIWGQGTLVTVSS
VL: QSVLTQPPSASGTPGQRVTISCSGNNIGTRRVHWYQQLPDTAPKLLIYSKNNRPSGVPDRFSGSKSGTSASLAISGLRSEDEADYYCAAWDDSLSGPVFGGGTKLTVL
notes: detected with anti-human IgG (H+L) and anti-Fc IgG; also called anti-CD300c monoclonal antibody CL7; anti-CD300c monoclonal antibody (CL7)
